{"source": "patent US8722856B2", "about": "“Anti-MUC1 antibody” (National University Corporation Hokkaido University, priority 2008, dated 2014)", "key": {"[1]": {"molecular_target": "T1, C6(DT*R)-20 (Compound No. 9) (Homo sapiens, UniProt P15941)", "T1 construct": "Synthesis of MUC1 Tn20-mer Glycopeptide; made in house; host or cells: chemical solid-phase synthesis", "T1 sequence (P15941 136-155)": "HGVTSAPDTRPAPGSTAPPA", "assay": "Sugar chain specificity, competitive ELISA against Biotin-Tn(DT*R)-100", "format": "binding", "conditions": "glycopeptide C6 (Compound No. 9)", "procedure": "(§1) Such specificity can be expressed by a difference in cross reactivity. The cross reactivity is obtained by a calculation equation of (IC50 for cancer-associated structure 2,3ST/IC50 for sugar chain structure to be compared)×100(%). As used herein, inclusion of specificity refers to a difference of 2 fold or more.\n(§2) Ten days after cell fusion, screening of a specific antibody-producing cell was performed. ELISA was used in screening is as follows. To each well of a 384-well microtiter plate (manufactured by Nunc) 35 μl of a Tris buffer (50 mM Tris-HCl, pH 7.5) containing 0.35 μg of an anti-mouse IgG antibody (manufactured by Shibayagi Co., Ltd.) was added to immobilize the antibody at 4° C. for 16 hours. After these wells were washed with 90 μl of a washing solution (physiological saline containing 0.01% Tween 20) once, 200 μl of BLOCK ACE (manufactured by Dainippon Sumitomo Pharma Co., Ltd.) was added, and this was allowed to stand at room temperature for 2 hours for blocking (an anti-mouse IgG antibody solid-phased plate). After each well was washed with 90 μl of a washing solution once, 10 μl of a hybridoma culture supernatant, 10 μl of a buffer A (50 mM Tris buffer containing 0.5% bovine serum albumin, 0.01% Tween 80, 0.05% Proclin 150, and 0.15 M. NaCl, pH 7.4), and 10 μl of a buffer A containing 0.01 ng of Biotin-2,3-ST(DT*R)-20 (Compound No. 16 of Table 1) and 2 ng of Streptavidin-HRP (manufactured by PIERCE) were added to perform a reaction at 4° C. for 16 hours. Then, after each well was washed with 90 μl of a washing solution three times, 25 μl of TMB+-Substrate-Chromogen (manufactured by DAKO) was added to develop a color at room temperature for 30 minutes, 25 μl of 0.05 M sulfuric acid was added to stop the reaction, and absorbance was measured at 450 nm. […] Using a mouse monoclonal antibody isotyping ELISA kit (manufactured by BD Bioscience), a subclass of the antibody was determined and, as a result, an isotype of 1B2 was IgG2a.\n(§3) Fifteen (15) μl of a buffer A containing a MUC1 antibody was added to an anti-mouse IgG antibody solid-phased plate and the reaction was allowed to proceed at room temperature for 3 hours. […] Then, after each well was washed with 90 μl of a washing solution three times, 15 μl of TMB+-Substrate-Chromogen (manufactured by DAKO) was added to develop a color at room temperature for 30 minutes, 15 μl of 0.05 M sulfuric acid was added to stop the reaction, and absorbance at 450 nm was measured."}, "[2]": {"molecular_target": "T2, STn(DT*R)-20 (Compound No. 4) (Homo sapiens, UniProt P15941)", "T2 construct": "Synthesis of MUC1 Tn20-mer Glycopeptide; made in house; host or cells: chemical solid-phase synthesis", "assay": "Sugar chain specificity, competitive ELISA against Biotin-Tn(DT*R)-100", "format": "binding", "conditions": "glycopeptide STn (Compound No. 4)", "procedure": "as §1, §2, §3"}, "[3]": {"molecular_target": "T3, cancer-associated structure and normal tissue-associated structure of MUC1 (Homo sapiens, UniProt P15941)", "T3 construct": "Synthesis of MUC1 Tn20-mer Glycopeptide; made in house; host or cells: chemical solid-phase synthesis, partly with enzymatic sugar extension", "assay": "Sugar chain specificity, overall statements from competitive ELISA", "format": "binding", "procedure": "as §1, §2, §3"}, "[4]": {"system": "human mammary gland epithelial cell 184A1", "assay": "Binding of antibody to cell with FACS", "format": "cell-based", "procedure": "Whether the MUC1 protein expressed on a surface of a cancer cell membrane and the 1B2 antibody bound thereto was investigated by FACS. A human breast cancer cell strain T-47D (ATCC, HTB-133) and a human mammary gland epithelial cell 184A1 (ATCC, CRL-8798) which had been trypsinized with Trypsin (manufactured by Invitrogen) were washed once with a FACS buffer (PBS containing 5% FCS, 0.05% sodium azide), and suspended in 100 μl of a FACS buffer containing 10 μg/ml 1B2 antibody and the reaction was allowed to proceed at room temperature for 2 hours. The resultant reaction product was washed with a FACS buffer two times, and suspended in 200 μl of FITC-Goat Anti-Mouse IgG (manufactured by ZYMED), and the reaction was allowed to proceed at room temperature for 1 hour. After washing with a FACS buffer two times, analysis was performed by FACSAria (manufactured by BD). As a result, in T-47D, the 1B2 antibody greatly shifted the fluorescent signal of FACS (about 300-fold) as compared with a control mouse IgG2a antibody (manufactured by SIGMA-ALDRICH), while in 184A, fluorescent shift by 1B2 was scarcely seen (about 2-fold)."}}, "data": [{"molecule": "1B2: mouse monoclonal anti-MUC1 antibody, isotype IgG2a, clone from immunization with 2,3-ST(DT*R)-20 conjugated to BSA (antibody, V domains shown, Antibody 1B2 VH sequence; Antibody 1B2 VL sequence) VH: MEWIWIFLFILSGTAGVQSQVQLQQSGAELARPGASVKLSCKASGYTFTNYGLSWVKQRTGQGLEWIGENHPGSGIIYHNEKFRGKATLTADKSSSTAYVQLSSLTSEDSAVYFCARSSGTRGFAYWGQGTLVTVSA VL: MKLPVRLLVLMFWIPASSSDVLMTQTPLSLPVSLGDQASISCRSSQSIVHSNGNTYLEWYLQKPGQSPKLLIYKVSNRFSGVPDRFSGSGSGTDFTLKISRVEAEDLGVYYCFQGSHGPWTFGGGTKLEIKRA", "values": [{"measurement": "Cross reactivity letting 2,3-ST to be 100%", "setting": "[1]", "result": 0.75, "unit": "%"}, {"measurement": "Cross reactivity letting 2,3-ST to be 100%", "setting": "[2]", "result": 0.36, "unit": "%"}, {"measurement": "IC50 for a cancer-associated structure", "setting": "[3]", "result": "≤ 100", "unit": "nM"}, {"measurement": "cross reactivity for the normal tissue-associated structure, letting 2,3ST to be 100%", "setting": "[3]", "result": "≤ 1", "unit": "%"}, {"measurement": "specificity for a cancer-associated structure as compared with that for a normal tissue-associated structure", "setting": "[3]", "result": "at least 100 fold"}, {"measurement": "cross reactivity with a sugar chain structure highly expressed in normal cells", "setting": "[3]; 2,3ST6L(DT*R)-20, 2,3-ST6SL(DT*R)-20", "result": "low cross reactivity"}, {"measurement": "affinity for a sugar chain structure highly expressed in cancer cells", "setting": "[3]; T(DT*R)-20, 2,3-ST(DT*R)-20, Tn(DT*R)-20", "result": "high affinity"}, {"measurement": "reaction with mammary gland epithelial cell (FACS)", "setting": "[4]; 184A1", "result": "hardly reacts"}, {"measurement": "shift of fluorescent signal of FACS as compared with control mouse IgG2a antibody", "setting": "[4]; 184A1, 10 μg/ml antibody", "result": "about 2 fold"}]}]}
